# Source: patent publication US20140057323A1, “ENHANCED CELLODEXTRIN METABOLISM” (The Board of Trustees of the University of Illinois, priority 2011, published 2014)
# Numbering of substitutions follows the chain as printed. In names and notes the source's numbering stands.
# T1: Neurospora crassa cellodextrin transporter CDT-1 (NCU00801), wild type, SEQ ID NO: 9, GFP-tagged, in S. cerevisiae D452-2 (Neurospora crassa, UniProt Q7SCU1)
# T1 construct: [3H]-cellobiose uptake into whole cells
# T1 sequence (Q7SCU1 1-579): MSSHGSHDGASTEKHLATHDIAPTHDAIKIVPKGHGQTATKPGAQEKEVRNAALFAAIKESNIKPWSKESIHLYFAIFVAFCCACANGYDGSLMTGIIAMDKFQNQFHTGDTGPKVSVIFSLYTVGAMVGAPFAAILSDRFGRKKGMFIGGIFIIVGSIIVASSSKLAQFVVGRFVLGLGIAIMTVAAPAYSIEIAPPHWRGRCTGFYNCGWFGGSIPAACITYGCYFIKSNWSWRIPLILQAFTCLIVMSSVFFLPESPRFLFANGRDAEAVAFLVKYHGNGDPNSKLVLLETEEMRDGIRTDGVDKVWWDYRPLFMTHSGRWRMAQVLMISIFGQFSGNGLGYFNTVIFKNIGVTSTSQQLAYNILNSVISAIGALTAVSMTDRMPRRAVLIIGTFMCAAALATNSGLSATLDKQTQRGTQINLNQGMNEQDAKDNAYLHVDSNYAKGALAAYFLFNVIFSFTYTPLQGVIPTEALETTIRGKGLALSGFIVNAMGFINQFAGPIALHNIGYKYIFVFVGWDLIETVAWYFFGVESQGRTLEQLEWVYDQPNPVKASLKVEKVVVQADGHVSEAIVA
# B1: Neurospora crassa cellodextrin transporter CDT-1 (NCU00801), wild type, SEQ ID NO: 9, GFP-tagged, in S. cerevisiae D452-2 (Neurospora crassa OR74A) (protein)
# chain: T1 sequence (Q7SCU1 1-579)
# B2: Neurospora crassa cellodextrin transporter CDT-1 (SEQ ID NO: 9) variant F213L, GFP-tagged, in S. cerevisiae D452-2 (Neurospora crassa OR74A; F213L) (protein)
# chain: T1 sequence (Q7SCU1 1-579) with F213L
# notes: [3H]-cellobiose uptake
# B3: Neurospora crassa cellodextrin transporter CDT-1 (SEQ ID NO: 9) variant F335A, GFP-tagged, in S. cerevisiae D452-2 (Neurospora crassa OR74A; F335A) (protein)
# chain: T1 sequence (Q7SCU1 1-579) with F335A
# notes: [3H]-cellobiose uptake
# B4: Neurospora crassa cellodextrin transporter CDT-1 (SEQ ID NO: 9) variant G91A, GFP-tagged, in S. cerevisiae D452-2 (Neurospora crassa OR74A; G91A) (protein)
# chain: T1 sequence (Q7SCU1 1-579) with G91A
# notes: [3H]-cellobiose uptake
# B5: Neurospora crassa β-glucosidase GH1-1 (NCU00130) (Neurospora crassa OR74A) (protein)
# chain: MSLPKDFLWGFATAAYQIEGAIHADGRGPSIWDTFCNIPGKIADGSSGAVACDSYNRTKEDIDLLKSLGATAYRFSISWSRIIPVGGRNDPINQKGIDHYVKFVDDLLEAGITPFITLFHWDLPDGLDKRYGGLLNREEFPLDFEHYARTMFKAIPKCKHWITFNEPWCSSILGYNSGYFAPGHTSDRTKSPVGDSAREPWIVGHNLLIAHGRAVKVYREDFKPTQGGEIGITLNGDATLPWDPEDPLDVEACDRKIEFAISWFADPIYFGKYPDSMRKQLGDRLPEFTPEEVALVKGSNDFYGMNHYTANYIKHKKGVPPEDDFLGNLETLFYNKKGNCIGPETQSFWLRPHAQGFRDLLNWLSKRYGYPKIYVTENGTSLKGENAMPLKQIVEDDFRVKYFNDYVNAMAKAHSEDGVNVKGYLAWSLMDNFEWAEGYETRFGVTYVDYENDQKRYPKKSAKSLKPLFDSLIKKD
# B6: Saccharophagus degradans cellobiose phosphorylase SdCBP, wild type, SEQ ID NO: 12 (Saccharophagus degradans 2-40) (protein)
# chain: MKFGHFDDKAREYVITDPKTPYPWINYLGNEDFFSLVSNTGGGYSFYKDAKFRRLTRYRYNNVPVDNGGKYFYINDSGDVWSPGWKPVKAELDAYSCAHGLSYTRITGERNGIQAEVLSFIPLGTWAEIQKVSLKNTSGATKKFKLFSFAEWCLWNAEDDMTNFQRNFSTGEVEVEDSVIYHKTEFKERRNHYAFYSVNAPIQGFDTDRDKWKGLYNDFDKPDAVFEGEPRNSEAHGWSPIASHYLEVELAPGESKDLIFVLGYIEVAPENKWESKGVINKSPAKELIARFDSVEKVDAELTKLADYWANLLSTYSVESGDEKLDRMVNIWNQYQCMVTFNMSRSASFFESGIGRGMGFRDSNQDLIGFVHQVPERARERIIDIASTQFEDGSAYHQYQPLTKRGNNAIGGNFNDDPLWLILSTTDYIKETGDFSILEEQVPYDNDASKATSHFEHLKRSFYHTVNNLGPHGLPLIGRADWNDCLNLNCFSEDPNESFQTTGNKTGRTAESLMIAGLFVLYGNEFVKLCREIGQDGEAAEAQAHIDQMVEAVKKHGWDGEWFLRAYDYYGKKVGSKENEEGKIFIESQGFCGMAGIGLEDGLVEKSMDSVKEWLDCDYGIVLQQPAFTKYYIEYGEISTYPAGYKENAGIFCHNNPWIMITETLLGRGDKAFEYYRKIAPAYLEEISDLHKVEPYAYCQMIAGKDAYLPGEGKNSWLTGTASWNFAAITQYILGVKPDYSGLAINPCIPSSWDGFKVTRKYRGATYNIIVTNPTHVSKGVKSLTLNGNAIDGYIVPPQQAGTVCNVEVTLG
# Key:
# [1] = target: S. cerevisiae hexokinase Glk1 (NP_009890) (Saccharomyces cerevisiae, UniProt P17709); experiment: Effect of cellobiose on activity of purified hexokinase Glk1; type: biochemical; conditions: read-out: reduction of hexokinase activity by cellobiose
# Description: (§1) The amount of hexokinase activity in cell extracts was determined by coupling the production of glucose-6-phosphate to the reduction of NADP^+ by glucose-6-phosphate dehydrogenase. 10 μg of cell extract was added to 1 mL of an assay mixture consisting of 50 mM Tris-HCl [pH 8.0 at 30° C.], 13.3 mM MgCl2, 540 μM ATP, 20 μM NADP^+, 1 U S. cerevisiae glucose-6-phosphate dehydrogenase, and 112 mM glucose. The number of pmol of glucose-6-phosphate produced per second was calculated by multiplying the rate of increase at 340 nm by 1.85×10^3, a conversion that was established from a glucose-6-phosphate standard curve.
# (§2) The Hxk1 (Accession: NP_116711), Hxk2 (Accession: NP_011261), and Glk1 (Accession: NP_009890) genes were expressed and purified in E. coli. First, the genes were cloned into the PmlI and XhoI restriction sites of the expression plasmid pET302. Hxk1 gene was amplified using the following primers: […]
# (§3) These constructs were transformed into the BL21(DE3) strain of E. coli, and the proteins were expressed and purified using Nickel-NTA agarose beads from Qiagen following the protocol for native batch purification provided by Qiagen. […] Protein concentrations were determined by the absorbance at 280 nm using extinction coefficients of 45840 M^−1 cm^−1, 45840 M^−1 cm^−1 and 30370 M^−1 cm^−1, for Hxk1, Hxk2 and Glk1, respectively. […]
# [2] = target: T1, Neurospora crassa cellodextrin transporter CDT-1 (NCU00801), wild type, SEQ ID NO: 9, GFP-tagged, in S. cerevisiae D452-2; experiment: Transporter kinetics, [3H]-cellobiose uptake into yeast; type: cell-based; conditions: CDT-1 WT
# Description: (§8) Briefly, the yeast strain D452-2 transformed with mutant transporters was set-up at an OD (600 nm) of −0.2 in 50 mL of DOB-uracil and grown to an OD (600 nm) of ˜1. Cells were then harvested by centrifugation, washed 3× with 10 mLs of transport buffer (30 mM MES-NaOH [pH 5.6], 50 mM EtOH), and resuspended to a final OD (600 nm) of ˜40 in transport buffer. The GFP fluorescence of 100 μL of these cells was determined with excitation/emission wavelengths of 485/535 nm Beckman Coulter Paradigm™ plate reader. […] Reactions were stopped by spinning cells through the oil for 1 minute at 17,000 g, tubes were frozen in ethanol/dry ice, and tube-bottoms containing the cell-pellets were clipped off into 1 mL of 0.5 M NaOH. The pellets were solubilized overnight, 5 mL of Ultima Gold scintillation fluid added, and CPM determined in a Tri-Carb 2900TR scintillation counter.
# [3] = target: S. cerevisiae hexokinase Hxk2 (NP_011261) (Saccharomyces cerevisiae, UniProt P04807); experiment: Effect of cellobiose on activity of purified hexokinase Hxk2; type: biochemical; conditions: read-out: reduction of hexokinase activity by cellobiose
# Description: as §1, §2, §3
# [4] = target: S. cerevisiae hexokinase Hxk1 (NP_116711) (Saccharomyces cerevisiae, UniProt P04806); experiment: Effect of cellobiose on activity of purified hexokinase Hxk1; type: biochemical; conditions: Hxk1, up to 184 mM cellobiose
# Description: as §1, §2, §3
# [5] = substrate: OC[C@H]1O[C@@H](O[C@H]2[C@H](O)[C@@H](O)C(O)O[C@@H]2CO)[C@H](O)[C@@H](O)[C@@H]1O; experiment: cells, lysate or membranes; conditions: other: CDT-1 WT, [3H]-cellobiose uptake, pH 5.6
# [6] = substrate: OC[C@H]1O[C@@H](O[C@H]2[C@H](O)[C@@H](O)C(O)O[C@@H]2CO)[C@H](O)[C@@H](O)[C@@H]1O; experiment: Transporter kinetics, [3H]-cellobiose uptake into yeast; type: cell-based, Neurospora crassa; conditions: pH 5.6
# Description: as §8
# [7] = substrate: OC[C@H]1O[C@@H](O[C@H]2[C@H](O)[C@@H](O)C(O)O[C@@H]2CO)[C@H](O)[C@@H](O)[C@@H]1O; experiment: Kinetic parameters of purified GH1-1 (glucose oxidase/peroxidase assay); type: biochemical, Neurospora crassa; conditions: other: GH1-1, glucose production from cellobiose, 50 mM phosphate pH 6.0
# Description: (§4) The amount of cellobiase activity in cell extracts was determined by the Glucose oxidase/Peroxidase assay. […] The number of pmol of glucose produced per second was calculated by multiplying the rate of increase at 436 nm by 1.17×10^3, a conversion that was established from a glucose standard curve.
# (§5) GH1-1 and SdCBP were purified directly from the D452-2 yeast strains described above. 200 mL cultures in DOB-uracil-leucine were grown to an OD (600 nm) of ˜7. Cells were pelleted and washed 1× with 40 mL ddH2O. Cell pellets were resuspended in 25 mL of 50 mM NaH2PO4 [pH 8.0], 300 mM NaCl, 10 mM imidazole, 2 mM DTT, and Roche Complete EDTA-free Protease Inhibitor Cocktail, and lysed by passage through an Avestin EmulsiFlex C-3 homogenizer at 20,000 P.S.I. Cell debris was then pelleted, and proteins purified using Nickel-NTA agarose beads from Qiagen following the protocol for native batch purification provided by Qiagen. Protein eluted from the beads was buffer exchanged into a buffer consisting of phosphate buffered saline (PBS), 10% glycerol, and 2 mM DTT, snap-frozen in (1)N2 and stored at −80° C. Protein concentrations were determined by the absorbance at 280 nm using extinction coefficients of 108750 M^−1 cm^−1 and 178540 M^−1 cm^−1, for GH1-1 and SdCBP, respectively.
# (§6) A 1 mL assay included either […] of GH1-1 or […] SdCBP.
# (§7) To assay the transglycosylation activity of GH1-1 and SdCBP, both enzymes were enriched from cell extracts by IMAC. […] The kinetic parameters of the enriched proteins were also measured, and the results are depicted in FIG. 12 and quantified in Table 12.
# [8] = substrate: OC[C@H]1O[C@@H](O[C@H]2[C@H](O)[C@@H](O)C(O)O[C@@H]2CO)[C@H](O)[C@@H](O)[C@@H]1O; experiment: Kinetic parameters of purified SdCBP (glucose oxidase/peroxidase assay); type: biochemical, Saccharophagus degradans; conditions: other: SdCBP, glucose production from cellobiose, 50 mM phosphate pH 6.0
# Description: as §4, §5, §6, §7
# S. cerevisiae hexokinase Glk1 (NP_009890), sequence (P17709 whole entry): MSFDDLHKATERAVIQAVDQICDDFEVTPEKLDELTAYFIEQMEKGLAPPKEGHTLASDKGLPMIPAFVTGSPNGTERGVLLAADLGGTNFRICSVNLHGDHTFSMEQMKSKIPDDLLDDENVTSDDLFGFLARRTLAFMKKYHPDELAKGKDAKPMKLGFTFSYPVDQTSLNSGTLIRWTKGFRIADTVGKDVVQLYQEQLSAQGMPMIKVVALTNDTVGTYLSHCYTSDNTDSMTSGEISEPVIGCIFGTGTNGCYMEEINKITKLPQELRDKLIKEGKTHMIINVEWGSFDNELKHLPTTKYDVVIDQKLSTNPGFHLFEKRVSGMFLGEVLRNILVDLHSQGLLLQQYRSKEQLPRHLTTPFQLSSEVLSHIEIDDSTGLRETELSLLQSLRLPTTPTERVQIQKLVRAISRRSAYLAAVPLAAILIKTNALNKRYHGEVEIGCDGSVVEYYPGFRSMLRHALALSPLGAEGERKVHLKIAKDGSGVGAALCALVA
# S. cerevisiae hexokinase Hxk2 (NP_011261), sequence (P04807 whole entry): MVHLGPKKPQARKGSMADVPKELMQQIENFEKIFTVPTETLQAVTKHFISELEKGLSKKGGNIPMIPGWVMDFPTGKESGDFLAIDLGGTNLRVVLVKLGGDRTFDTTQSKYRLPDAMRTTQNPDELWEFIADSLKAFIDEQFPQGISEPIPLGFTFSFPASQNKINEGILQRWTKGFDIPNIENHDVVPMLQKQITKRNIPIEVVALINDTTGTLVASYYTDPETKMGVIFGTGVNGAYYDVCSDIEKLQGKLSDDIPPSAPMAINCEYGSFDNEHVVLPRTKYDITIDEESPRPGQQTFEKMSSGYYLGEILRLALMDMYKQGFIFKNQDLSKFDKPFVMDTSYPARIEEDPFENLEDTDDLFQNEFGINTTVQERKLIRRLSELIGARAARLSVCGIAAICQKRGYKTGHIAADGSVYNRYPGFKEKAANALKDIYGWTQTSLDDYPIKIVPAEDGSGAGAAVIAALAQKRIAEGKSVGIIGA
# S. cerevisiae hexokinase Hxk1 (NP_116711), sequence (P04806 whole entry): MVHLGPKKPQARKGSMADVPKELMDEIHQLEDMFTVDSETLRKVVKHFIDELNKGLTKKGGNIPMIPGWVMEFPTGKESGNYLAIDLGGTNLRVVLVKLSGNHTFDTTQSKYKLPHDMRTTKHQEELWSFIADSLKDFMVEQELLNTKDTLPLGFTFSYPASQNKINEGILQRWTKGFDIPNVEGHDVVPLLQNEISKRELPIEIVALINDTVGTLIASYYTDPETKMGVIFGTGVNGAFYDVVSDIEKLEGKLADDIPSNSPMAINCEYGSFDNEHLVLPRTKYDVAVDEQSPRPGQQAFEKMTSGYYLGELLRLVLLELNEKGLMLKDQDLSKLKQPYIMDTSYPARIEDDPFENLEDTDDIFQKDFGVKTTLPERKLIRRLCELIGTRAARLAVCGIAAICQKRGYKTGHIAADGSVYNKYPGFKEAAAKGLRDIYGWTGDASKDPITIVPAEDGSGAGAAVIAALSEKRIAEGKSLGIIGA
molecule,measurement,setting,value
OC[C@H]1O[C@@H](O[C@H]2[C@H](O)[C@@H](O)C(O)O[C@@H]2CO)[C@H](O)[C@@H](O)[C@@H]1O (some centres unmarked) [cellobiose],inhibition at 184000 µM,[1],~20%
same,Vmax,[2],0.60 ± 0.03 µmol/s
same,inhibition at 184000 µM,[3],~20%
same,effect of cellobiose on hexokinase activity,[4],unaffected
B1,Km,[5],7.6 ± 1.5 µM
B2,Km,[6]; other: CDT-1 F213L,188.8 ± 55.3 µM
B3,Km,[6]; other: CDT-1 F335A,114.8 ± 46.4 µM
B4,Km,[6]; other: CDT-1 G91A,43.5 ± 10.1 µM
B5,Km,[7],0.32 mM
same,kcat,[7],7 s⁻¹
same,kcat/Km,[7],21900 M⁻¹ s⁻¹
B6,Km,[8],0.65 mM
same,kcat,[8],7 s⁻¹
same,kcat/Km,[8],11500 M⁻¹ s⁻¹
